From patent US20170267768A1 (University of California, published 2017)

B1: scFv-20 (scFv)
scFv: QVQLVQSGGGLVQPGGSLRLSCAASGFTFSSYAMHWVRQAPGKGLEWVTVISHDGTNTYYADSVKGRFTISRDNSKNTLYLQMNSLRAEDTAVYYCARASVGATGPFDIWGQGTLVTVSSASTGGGGSGGGGSGGGGSGGGGSSSELTQPPSVSVAPGQTVTITCQGDSLRSYYASWYQQKPGTAPKLLIYGENNRPSGVPDRFSGSSSGTSASLTITGAQAEDEADYYCNSRDSSGTHLTVFGGGTKLTVLG
B2: scFv-3 (scFv)
scFv: QVQLVQSGGGLVQPGGSLRLSCAASGFTFSSYAMHWVRQAPGKGLEWVTVISPDGHNTYYADSVKGRFTISRDNSKNTLYLQMNSLRAEDTAVYYCARASVGATGPFDIWGQGTLVTVSSASTGGGGSGGGGSGGGGSGGGGSSSELTQPPSVSVAPGQTVTITCQGDSLRSYYASWYQQKPGTAPKLLIYGENNRPSGVPDRFSGSSSGTSASLTITGAQAEDEADYYCNSRDSSGTHLTVFGGGTKLTVLG
B3: scFv-22 (scFv)
scFv: QVQLVQSGGGLVQPGGSLRLSCAASGFTFSSYAMHWVRQAPGKGLEWVTVISPGGPNKYYADSVKGRFTISRDNSKNTLYLQMNSLRAEDTAVYYCARASVGATGPFDIWGQGTLVTVSSASTGGGGSGGGGSGGGGSGGGGSSSELTQPPSVSVAPGQTVTITCQGDSLRSYYASWYQQKPGTAPKLLIYGENNRPSGVPDRFSGSSSGTSASLTITGAQAEDEADYYCNSRDSSGTHLTVFGGGTKLTVLG
B4: scFv-21 (scFv)
scFv: QVQLVQSGGGLVQPGGSLRLSCAASGFTFSSYAMHWVRQAPGKGLEWVTVISRHGNNKYYADSVKGRFTISRDNSKNTLYLQMNSLRAEDTAVYYCARASVGATGPFDIWGQGTLVTVSSASTGGGGSGGGGSGGGGSGGGGSSSELTQPPSVSVAPGQTVTITCQGDSLRSYYASWYQQKPGTAPKLLIYGENNRPSGVPDRFSGSSSGTSASLTITGAQAEDEADYYCNSRDSSGTHLTVFGGGTKLTVLG

Each binder was assayed against T1, human EphA2 on OVCAR-3 and U-251 cells (human, UniProt P29317 24-976) (assay: CLIA: scFv-decorated fluorescent NTA(Ni) liposomes on EphA2-expressing cells, FACS).
T1 construct: whole, on cells; also called EphA2 receptors
Experimental: To test the anti-EphA2 activity of these variant scFvs, the binding and internalization of liposomes externally decorated with these Abs was assayed on cell lines expressing EphA2. A rapid high-throughput Chelated Ligand-induced Internalization Assay (CLIA) (Nielsen et al., BMC immunology, 2006, 7:24) was used to screen anti-EphA2-scFv-targeted liposomes for binding and internalization assessment. Two cell lines that express high levels of EphA2 receptors, OVCAR-3 and U-251, were tested, as well as a murine EphA2-expressing mouse cell line, CT-26 (to test whether cross-reactivity to murine EphA2 was retained by the engineered scFvs). Via nickel-binding by each scFv's c-terminal His6 tag, the scFvs were bound to fluorescently labeled liposomes comprising an NTA(Ni) conjugated lipid (Dil5-NTA liposomes).
Dil5-NTA liposomes were prepared as follows. The NTA conjugated lipid, DOD-Tri-NTA, was synthesized as described in Huang et al., Bioconjugate chemistry, 2006, vol. 17, p. 1592-1600. Hydrogenated soy phosphatidylcholine (HSPC), cholesterol, methoxy-PEG(2000)-distearoylphosphatidylethanolamine (PEG-DSPE), DOD-tri-NTA, and a fluorescent lipid dye, Dil5, (ThermoFisher® Invitrogen® Molecular Probes™, cat. # D12370) were combined in a chloroform solution at the molar ratio of 100:66.7:5:0.5:0.3 respectively and the solution evaporated under vacuum to dryness forming a lipid film. The film was hydrated in HEPES-buffered physiological saline (“HBS-6.5”—5 mM HEPES, 144 mM NaCl pH 6.5) at 68° C., the resulting lipid suspension was subjected to several cycles of freezing (dry ice-acetone) and thawing (68C), and extruded through two stacked polycarbonate membranes (Whatman Nuclepore, USA) with the pore size of 200 nm (6 times) and 100 nm (10 times) using Lipex™ thermobarrel extruder (Northern Lipids, Canada). This protocol typically produces unilamellar vesicles with the z-average size of 100-110 nm and polydispersity index less than 0.1. The extruded liposomes were chilled to room temperature, purified by gel-chromatography on a Sephadex® G-75 (GE Healthcare) column eluted with HBS-6.5, and then sterilized by passage through a 0.2-μm filter. The concentration of liposomal phospholipid was then determined after acid digestion using spectrophotometric phosphomolybdate method.

T1 sequence (P29317 24-976): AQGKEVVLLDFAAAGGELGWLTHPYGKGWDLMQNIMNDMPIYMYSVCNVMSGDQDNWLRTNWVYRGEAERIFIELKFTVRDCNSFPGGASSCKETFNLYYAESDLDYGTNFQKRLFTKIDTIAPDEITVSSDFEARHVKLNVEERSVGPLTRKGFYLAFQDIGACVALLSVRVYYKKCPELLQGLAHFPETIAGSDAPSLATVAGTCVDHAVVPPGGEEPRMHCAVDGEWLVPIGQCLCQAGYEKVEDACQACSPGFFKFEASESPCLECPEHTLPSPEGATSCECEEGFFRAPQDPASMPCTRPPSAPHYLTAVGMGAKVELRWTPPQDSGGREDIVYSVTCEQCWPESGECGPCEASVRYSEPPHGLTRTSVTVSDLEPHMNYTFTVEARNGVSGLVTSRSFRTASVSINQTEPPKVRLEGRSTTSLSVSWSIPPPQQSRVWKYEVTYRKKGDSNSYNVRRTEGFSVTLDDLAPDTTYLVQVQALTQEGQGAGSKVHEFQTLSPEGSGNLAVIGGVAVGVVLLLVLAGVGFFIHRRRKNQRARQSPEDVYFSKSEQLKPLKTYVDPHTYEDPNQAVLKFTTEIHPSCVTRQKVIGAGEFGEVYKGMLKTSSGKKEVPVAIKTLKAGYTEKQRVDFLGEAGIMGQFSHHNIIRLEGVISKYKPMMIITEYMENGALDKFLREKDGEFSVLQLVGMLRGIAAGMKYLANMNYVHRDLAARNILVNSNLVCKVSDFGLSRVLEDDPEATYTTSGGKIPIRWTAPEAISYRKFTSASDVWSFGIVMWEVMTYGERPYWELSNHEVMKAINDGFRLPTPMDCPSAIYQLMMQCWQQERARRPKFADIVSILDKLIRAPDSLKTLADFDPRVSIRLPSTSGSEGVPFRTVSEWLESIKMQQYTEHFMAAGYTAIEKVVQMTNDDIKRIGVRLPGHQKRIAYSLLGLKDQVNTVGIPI

Binding result, binds:
B1
B2
B3
B4
